Test [1] addresses DENV1 strain Hawaii envelope (E) protein on virions (Dengue virus 1 (strain Hawaii)). Description: ELISA; apparent. Background: An ELISA detects its analyte on a solid surface through an enzyme-linked reagent.
The target of test [2] is DENV2 A259C (sE)2, disulfide engineered mutant dimer. Description: BLI (steady state binding).
Test [3] concerns the target DENV3 A257C (sE)2, disulfide engineered mutant dimer. Description: BLI (steady state binding).
The target in test [4] is ZIKV-H/PF/2013 sE protein (aa 1-404). Description: BLI (steady state binding).
In test [5] the target is DENV4 A259C (sE)2, disulfide engineered mutant dimer. Description: BLI (steady state binding).
In test [6] the target is DENV3 strain H87 envelope (E) protein on virions (Dengue virus 3 (strain H87)). Description: ELISA.
For test [7], the target named is DENV4 strain 1-0093 envelope (E) protein on virions (Dengue virus 4 (strain 1-0093)). Description: ELISA.
For test [8], the target named is DENV2 strain 16681 envelope (E) protein on virions (Dengue virus 2 (strain 16681)). Description: ELISA.
For test [9], the target named is DENV1-FGA/89 sE protein (aa 1-395) (Dengue virus 1 (strain FGA/89)). Description: crystal structure; unbound sE.
Test [10] has the same target. Description: crystal structure.
Test [11] has as its target K^L66A C10 mAb mutant (IgG1) (human). Description: BLI.
Test [12] addresses DENV3-paH881 sE protein (aa 1-393) (Dengue virus 3 (strain paH881)). Description: crystal structure; unbound sE.
For test [13] the target is unchanged. Description: crystal structure.
Test [14] concerns the target DENV4_Burma/63632/1976 sE protein (aa 1-395) (Dengue virus 4 (strain Burma/63632/1976)). Description: crystal structure.
Test [15] deals with ZIKV-H/PF/2013 sE protein (aa 1-404) (Zika virus (strain H/PF/2013)). Description: crystal structure.
Test [16] shares this target. Description: SEC-MALS; Superdex 200 10/300 GL; Tris 50 mM pH 8.0, NaCl 500 mM; about 150 ug protein; proteins alone and in complex.

For the substance C10 bivalent F(ab')2, the Kd in test [1] was determined as 3.84 nM.
Turning to “C10 intact bivalent IgG1 (human monoclonal antibody EDE1 C10) L:K66A”, the Kd was determined as 259 nM in test [2], 223 nM in test [3], 40.3 nM in test [4] and 1370 nM in test [5].
“C10 monovalent antigen binding fragment (Fab)”: the fold difference in EC50 for virion binding, bivalent versus monovalent in test [6] was 2 logs; in test [7], 10 fold; in test [8], 10 fold.
Regarding “DENV1-FGA/89 sE protein (aa 1-395) (domain or fragment)”, the stoichiometry N in test [9] and in test [10] was 2 each time.
Substance “DENV2 A259C (sE)2, disulfide engineered mutant dimer (domain or fragment)” gave a drop in affinity against wild-type C10 in [11] of more than 1 log.
As for “DENV3 A257C (sE)2, disulfide engineered mutant dimer (domain or fragment)”, the drop in affinity against wild-type C10 in [11] was more than 1 log.
Take “DENV3-paH881 sE protein (aa 1-393) (domain or fragment)”: the stoichiometry N in test [12] and in test [13] was 2 throughout.
In test [11], “DENV4 A259C (sE)2, disulfide engineered mutant dimer (domain or fragment)” had a drop in affinity against wild-type C10 of more than 1 log.
For the substance “DENV4_Burma/63632/1976 sE protein (aa 1-395) (domain or fragment)”, in test [14], the stoichiometry N (in general, a count of units in the complex or per binding partner) turned out to be 2.
On to “ZIKV-H/PF/2013 sE protein (aa 1-404) (domain or fragment)”, for which the stoichiometry N in test [15] and in test [16] was 2 throughout.

For the origin of these results see publication PMC8724787.
